Test results published in patent publication US20200199207A1 (MABYLON, published 2020).
Changes are numbered by the printed parent chain.

T1: Ara h 2 (peanut, UniProt Q6PSU2 22-172)
T1 construct: also called full length Ara h 2
T1 sequence (looked up): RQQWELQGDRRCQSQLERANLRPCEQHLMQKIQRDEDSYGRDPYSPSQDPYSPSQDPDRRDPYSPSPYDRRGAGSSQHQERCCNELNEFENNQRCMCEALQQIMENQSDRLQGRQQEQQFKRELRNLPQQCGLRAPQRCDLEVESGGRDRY

T2: nBet v 1 (UniProt P15494 2-160)
T2 sequence (looked up): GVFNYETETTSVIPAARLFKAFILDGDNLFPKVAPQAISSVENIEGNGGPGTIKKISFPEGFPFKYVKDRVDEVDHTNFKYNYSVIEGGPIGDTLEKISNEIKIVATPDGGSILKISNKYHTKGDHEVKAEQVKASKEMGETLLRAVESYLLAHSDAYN

T3: nAra h 6 (peanut, UniProt Q647G9 22-145)
T3 construct: Bought natural allergen; also called naturally extracted Ara h 6
T3 sequence (looked up): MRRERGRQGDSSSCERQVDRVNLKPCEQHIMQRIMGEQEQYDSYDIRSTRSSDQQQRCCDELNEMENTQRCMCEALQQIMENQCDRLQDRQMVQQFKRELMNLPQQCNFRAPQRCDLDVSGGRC

T4: nAra h 2 (peanut, UniProt Q6PSU2 22-172)
T4 construct: Bought natural allergen; also called naturally extracted Ara h 2
T4 sequence (looked up): T1 sequence (looked up)

T5: nAra h 1 (peanut, UniProt P43238 85-626)
T5 construct: Bought natural allergen; also called naturally extracted Ara h 1
T5 sequence (looked up): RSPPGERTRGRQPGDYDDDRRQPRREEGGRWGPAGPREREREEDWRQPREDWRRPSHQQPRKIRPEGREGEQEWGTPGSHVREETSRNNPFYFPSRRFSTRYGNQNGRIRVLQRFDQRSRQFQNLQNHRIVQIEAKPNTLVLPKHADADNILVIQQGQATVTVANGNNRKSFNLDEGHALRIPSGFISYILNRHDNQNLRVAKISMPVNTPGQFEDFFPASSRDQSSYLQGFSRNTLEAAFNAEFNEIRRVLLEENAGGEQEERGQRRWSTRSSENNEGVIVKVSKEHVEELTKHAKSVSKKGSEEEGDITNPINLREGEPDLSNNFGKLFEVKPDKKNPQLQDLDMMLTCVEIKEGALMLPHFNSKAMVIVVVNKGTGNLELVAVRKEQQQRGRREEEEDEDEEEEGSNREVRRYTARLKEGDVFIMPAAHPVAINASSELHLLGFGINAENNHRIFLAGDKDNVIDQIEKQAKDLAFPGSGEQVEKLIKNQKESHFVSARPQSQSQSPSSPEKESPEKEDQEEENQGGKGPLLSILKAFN

B1: h12G10 (antibody, human IgG1, V domains shown)
VH: EVQLLESGGRLLRPGGSLSLSCVASGFYFGDFGMSWVRQVPGKGLEWVSGIDWSGRSTGYVDSMKGRLTISRDNDKSSLYLQMNDLRGEDTAVYYCARVGRLCSGDSCDSMGAFDLWGQGTMVTVSS
VL: DIQLTQSPSTLSASIGDSVTITCRASQNIDNWLAWYQQKPGKAPRLLIYKASSLGSGVSSKFRGSGFGTEFTLTITSLQPDDFATYYCQKSNGYSRTFGQGTKVDIK
notes: Recombinant human IgG; also called hMAb 12G10
B2: h37D5 (antibody, V domains shown)
VH: EEQLVESGGRLLRPGESLSLSCAAVGFNFGDFGMAWVRQPPGKGLEWVAGINWSGHSTGFVDSMKGRLTISRDSAKSSLFLQMNSLRGEDTAVYYCARVGRLCSGDICDSMGAFDLWGQGTMVTVSS
VL: B1 VL with L4M, S18R, N28T, K39R, R45K, K50Q, G55Q, K61R, F67S, D105E
notes: Recombinant human IgG; also called hMAb 37D5
B3: h4B2 (antibody, V domains shown)
VH: QVQLQEAGPRLVKPSQTLSVTCTVSGASITIGGYYWSWIRQHPGKGLEWMGYIYSNGRTYYNPSLKSRIAMSIDTSKNQFSLKLTSVTAADTAIYFCAREAWETPLWGQGTLITVSS
VL: DIQMTQSPSSLSASVGDRVTITCQANQDIVNSLNWFQHKPGTAPKVLIYDASKLETGVPSRFSGSGSGTHFTFTISGLQPEDFATYFCQQYENLPHTFGQGTKLEIR
notes: Recombinant human IgG; also called hMAb 4B2
B4: h32B10 (antibody, V domains shown)
VH: QVQLVQSGAEVKKPGASVKVSCRASGYIFRNFDINWVRQATGQGLEWMGWMSPKSGDTGYAQKFQGRVTMTRDTSINTAYMELSSLTSEDSAVYYCARGVDGTNWGQGTRVTVSS
VL: DIVMTQSPDSLGVSLGERATISCKSSQSILDNSNNKNFIAWFQQKPGQPPKLLIYWASARESGVPDRFSGSGSGTEFTLTINSLQAEDVAVYYCYQYYSTPHTFGQGTKLDLR
notes: Recombinant human IgG; also called hMAb 32B10
B5: h7G6 (antibody, V domains shown)
VH: QVQLVESGGGVVQPGRSLRLSCAASGIAFNDYTMHWVRRSPDKGLEWVAAISYGGTNKYYADSVKGRFTISRDSSKNTLFLQMDSLRVEDTAVYYCARDSGYRSLLHWGQGTLVTVSS
VL: EIVLTQSPLSLPVTPGEPASISCRSSQSLVHRNGYNYLDWYLQKPGQSPQLLIYMASKRASGVPDRFSGSGSGTEFTLKISRVEAEDVGIYYCMQALQTWTFGQGTKVEVN
notes: Recombinant human IgG; also called hMAb 7G6
B6: h2F8 (antibody, V domains shown)
VH: EVQLVESGGGLVKPGGSLRLSCAASGFIFSDYNMNWVRQAPGKGLEWVSSITRSSRTIYYADSVKGRFTISRDNAKNSLHLQMNSLRDADTAVYYCAREDFDVSTGPYYMDVWGNGTTVIVSS
VL: EIVLTQSPGTLSLSPGERATLSCRASQSVSNMFLVWYQQKPGQAPRLLMYGASTRATDIPDRFSGSGSGTDFTLTISRLEPEDFAVYYCQQNGNSPYTFGQGTKLEIK
notes: Recombinant human IgG; also called hMAb 2F8

The binders below were run against T1, Ara h 2 (assay: competition ELISA on coated Ara h 2; competitor: Patient D serum IgE).
Description: (§1) Microplates were coated with […] of Ara h 1, Ara h 2, Ara h 3, or Ara h 6, overnight at 4° C. After washing with PBS-Tween 0.05% and blocking with 2% BSA, plates were incubated with increasing concentrations of peanut human IgG antibodies for 1 h at room temperature. Subsequently, plates were incubated with different sera dilutions or different concentrations of murine antibody (as positive control). IgE levels were detected using anti-human HRP-conjugated Fc-epsilon-specific secondary antibody (Abcam, Cambridge, UK) followed by addition of TMB solution (TMB, Sigma, Buchs, Switzerland). Binding of murine antibodies was detected using goat anti-mouse IgG (H+L)-HRP (Jackson ImmunoResearch, West Grove, Pa., USA).

% inhibition of IgE binding [%] | Binder
35.7 | B1
35.5 | B2
9.23 | B3
8.5 | B4

The binders below were run against T1, Ara h 2 (assay: competition ELISA on coated Ara h 2; competitor: Patient E serum IgE).
Description: as §1

% inhibition of IgE binding [%] | Binder
36.2 | B1
29.3 | B2
21.9 | B3
29.3 | B4

The binders below were run against T1, Ara h 2 (assay: competition ELISA on coated Ara h 2; competitor: Patient A serum IgE).
Description: as §1

% inhibition of IgE binding [%] | Binder
13.8 | B1
27.8 | B2
39.7 | B3
27.8 | B4

What follows are binders tested against T2, nBet v 1 (assay: ELISA, antigen-coated plate).
Description: (§2) EC50 binding of exemplary anti-peanut antibodies of the present invention to peanut allergens or peanut extract, was determined by ELISA. Serial dilutions of MAbs (from 1000 ng/ml down to 0.0169 ng/ml) were incubated for 2 hours with antigen-coated plates (coating overnight at 4° C. or 1 h at 37° C. with 1 μg/ml antigen in PBS, followed by wash out and blocking with 2% BSA in PBS). The plates were subsequently washed and binding of MAbs was detected with anti-human HRP-conjugated Fc-gamma-specific secondary antibody (Jackson ImmunoResearch, West Grove, Pa., USA). Concentrations of MAb resulting in half of maximal binding to respective antigens (EC50, ng/ml) were calculated using GraphPad Prism 5 software on sigmoidal dose-response curves (variable slope, 4 parameters) obtained by plotting the log of the concentration versus OD450 nm measurements; for the results see FIG. 3 and table 2.

binding result | Binder
no binding (tested: 1000 ng/ml) | B1
no binding (tested: 1000 ng/ml) | B2
no binding (tested: 1000 ng/ml) | B3
no binding (tested: 1000 ng/ml) | B5
no binding (tested: 1000 ng/ml) | B4
no binding (tested: 1000 ng/ml) | B6

What follows are binders tested against T3, nAra h 6 (assay: ELISA, antigen-coated plate).
Description: as §2

EC50 [ng/mL] | Binder
17.2 | B1
22.1 | B2
7 | B3
2.6 | B5
7 | B4
3.4 | B6

Each binder was assayed against T4, nAra h 2 (assay: ELISA, antigen-coated plate).
Description: as §2

EC50 [ng/mL] | Binder
6.8 | B1
5.6 | B2
6.7 | B3
4.7 | B5
9.2 | B4
5.6 | B6

The binders below were run against T6, nAra h 3 (peanut) (assay: ELISA, antigen-coated plate).
T6 construct: Bought natural allergen; also called naturally extracted Ara h 3
Description: as §2

EC50 [ng/mL] | Binder
33.7 | B1
65.2 | B2
1.3 | B5
4.9 | B4
2.8 | B6

The binders below were run against T5, nAra h 1 (assay: ELISA, antigen-coated plate).
Description: as §2

EC50 [ng/mL] | Binder
242 | B1
264 | B2
5.9 | B3
1.9 | B5
8.8 | B4
8.5 | B6

What follows are binders tested against T1, Ara h 2 (assay: competition ELISA on coated Ara h 2; competitor: Patient F serum IgE).
Description: as §1

% inhibition of IgE binding [%] | Binder
45.3 | B1
36.2 | B2
30.8 | B3
23.1 | B4

Each binder was assayed against T1, Ara h 2 (assay: competition ELISA on coated Ara h 2; competitor: Patient B serum IgE).
Description: as §1

% inhibition of IgE binding [%] | Binder
31.2 | B1
29.6 | B2
30.6 | B3
26.7 | B4

These binders were tested against T1, Ara h 2 (assay: competition ELISA on coated Ara h 2; competitor: Patient G serum IgE).
Description: as §1

% inhibition of IgE binding [%] | Binder
25.7 | B1
45.3 | B2
31.8 | B3
32.8 | B4

What follows are binders tested against T1, Ara h 2 (assay: competition ELISA on coated Ara h 2; competitor: Patient C serum IgE).
Description: as §1

% inhibition of IgE binding [%] | Binder
53.8 | B1
~55.1 | B2
13.3 | B3
21 | B4

The binders below were run against T1, Ara h 2 (assay: competition ELISA on coated Ara h 2; control: Healthy donor serum).
Description: as §1

% inhibition of IgE binding [%] | Binder
0 | B1
2.27 | B2
0 | B3
0 | B4
